In CN117069840A (BEIJING BIOSYSTEMS BIOLOGICAL TECH CO LTD, dated 2023):

Tests used:
Assay in all cases: indirect ELISA, antigen coated at 1 μg/mL, hybridoma supernatant, HRP-anti-mouse IgG
[1] = biological target: 人源GM-CSF蛋白 (human, UniProt P04141 18-144)
[2] = biological target: T1, 人源TNF-alpha蛋白 (human, UniProt P01375 77-233)
T1 construct: also called TNF-α

[3] = biological target: 人源IL-2蛋白 (human, UniProt P60568 21-153)
[4] = biological target: T2, 人源IL-4蛋白 (human, UniProt P05112 25-153)
T2 sequence (looked up): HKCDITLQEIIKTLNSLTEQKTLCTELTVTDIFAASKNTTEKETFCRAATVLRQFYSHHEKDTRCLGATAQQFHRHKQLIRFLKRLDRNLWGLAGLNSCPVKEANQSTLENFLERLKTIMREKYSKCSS

[5] = biological target: 人源IL-6蛋白 (human, UniProt P05231 30-212)
[6] = biological target: T3, 人源IL-7蛋白 (human, UniProt P13232 26-177)
T3 sequence (looked up): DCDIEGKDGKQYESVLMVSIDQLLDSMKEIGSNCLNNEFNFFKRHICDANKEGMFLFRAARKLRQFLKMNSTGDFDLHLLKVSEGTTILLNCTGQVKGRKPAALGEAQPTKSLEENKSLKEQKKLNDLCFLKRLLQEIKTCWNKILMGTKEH

[7] = biological target: 人源IL-10蛋白 (human, UniProt P22301 19-178)
[8] = biological target: 人源IL-15蛋白 (human, UniProt P40933 49-162)

Measured: binding result

Sequence of 人源IL-2蛋白 (P60568 21-153 limits assumed): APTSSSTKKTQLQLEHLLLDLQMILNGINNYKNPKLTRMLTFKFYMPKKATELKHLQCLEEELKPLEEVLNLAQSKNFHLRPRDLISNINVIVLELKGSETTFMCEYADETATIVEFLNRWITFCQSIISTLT
Sequence of 人源IL-15蛋白 (P40933 49-162 limits assumed): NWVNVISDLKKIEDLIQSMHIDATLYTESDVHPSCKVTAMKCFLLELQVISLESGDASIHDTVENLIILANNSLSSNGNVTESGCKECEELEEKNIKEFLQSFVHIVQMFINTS
T1 sequence (P01375 77-233 limits assumed): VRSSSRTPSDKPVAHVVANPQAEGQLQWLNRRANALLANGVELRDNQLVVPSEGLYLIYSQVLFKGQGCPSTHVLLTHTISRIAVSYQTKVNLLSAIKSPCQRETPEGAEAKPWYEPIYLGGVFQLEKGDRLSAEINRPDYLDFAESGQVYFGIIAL
Sequence of 人源IL-10蛋白 (P22301 19-178 limits assumed): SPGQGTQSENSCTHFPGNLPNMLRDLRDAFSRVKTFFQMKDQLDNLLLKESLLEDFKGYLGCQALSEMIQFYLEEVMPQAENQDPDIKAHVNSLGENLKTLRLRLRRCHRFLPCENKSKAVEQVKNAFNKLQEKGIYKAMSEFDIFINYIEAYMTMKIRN
Sequence of 人源GM-CSF蛋白 (P04141 18-144 limits assumed): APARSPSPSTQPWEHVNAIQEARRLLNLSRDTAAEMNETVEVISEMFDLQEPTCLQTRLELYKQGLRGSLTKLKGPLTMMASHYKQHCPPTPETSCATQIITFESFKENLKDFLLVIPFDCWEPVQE

B1: 抗体13A6G6 (antibody, V domains shown)
VH: EVKLEESGGGLVQPGGSTKLSCAASGFTFSDAWMNWVRQSPEKGLEWIAEIRTKTSNHAAYYAASVKGRFTISRDDSKSSVYLQMNSLRPEDTGIYYCTRFDYWGQGTTLTVSS
VL: DVQITQSPSYLAASPGETITINCRASKNINKHLAWYHDKPGKTNKLLIYSGSTLQSGTPSRFSGSGSGTDFTLTISSLEPEDFAVYYCQQHNEYPYTFGGGTKLAIK
notes: Mouse monoclonal antibody from a hybridoma; also called Clone 13A6G6; 克隆号13A6G6
no binding: all assays above

B2: 抗体3G6D7 (antibody, V domains shown)
VH: EIQLQQSGPELVKPGASVKVSCKASGYGFTSYNMNWVKQSHGKSLEWIGYIDPYNGGSGYNQKFKGKATLTVDKSSSTAYMHLISLTSDDSAVYYCARGDYDGGYYGMDYWGQGTSVTVSS
VL: DILLTQSPAILSVSPGESVSFSCRASQSVGTSIHWFQQRTNGSPRLLIKYASESISGIPSRFSGSGSGTDFTLIINSVESEDIADYYCQQSNGWPFTFGSGTKLEIK
notes: Mouse monoclonal antibody from a hybridoma; also called Clone 3G6D7; 克隆号3G6D7
no binding: all assays above
